Reference: US20230331848A1 (BIOSION, published 2023)
Where two headings read alike, the source gives them in different places.

Experiments:
[1] = target: T1, in house made human PD-1-Fc protein (human, biotin-labeled (sites not given)); experiment: blocking FACS: biotin human PD-1-Fc + antibody on GS-C2/PD-L1 cells (competitor: cell-surface human PD-L1)
T1 construct: also called biotin-labeled human PD-1-Fc
Procedure: (§1) GS-C2/PDL1 cells were harvested from cell culture flasks at the log phase, washed twice and re-suspended in PBS containing 2% v/v Fetal Bovine Serum (FACS buffer). GS-C2/PD-L1 cells, 0.6×10⁵ cells per welt, were incubated in 96 well-plates with 100 the antibody/PD1-Fc mixture for 40 minutes at 4° C. Cells were washed twice with FACS buffer, added with 100 R-Phycoerythrin Streptavidin (1:500 dilution in FACS buffer, Cat#:016-110-084, Jackson Immunoresearch), and incubated for 40 minutes at 4° C. in dark. Cells were washed twice and re-suspended in FACS buffer. Fluorescence was measured using a Becton Dickinson FACS Canto II-HTS equipment. Data was analyzed using Graphpad Prism software and IC₅₀ values were reported.

[2] = target: T2, cynomolgus PD-1-his protein (Cat#:PD1-05223, Acro biosystems Inc.) (cynomolgus, UniProt B0LAJ3 25-170); experiment: SPR (Biacore T200), antibody captured on Protein G chip, PD-1-his in flow, 1:1 fit
T2 construct: Bought protein used in Biacore and indirect ELISA; also called monkey PD-1; Cyno PD-1

[3] = target: T2, cynomolgus PD-1-his protein …; experiment: indirect ELISA on coated cynomolgus PD-1-his
[4] = target: T1, in house made human PD-1-Fc protein; experiment: competitive ELISA: soluble Pembrolizumab pre-mixed with biotin-labeled human PD-1-Fc, added to coated Pembrolizumab (self-competition); unit from the axis 'Con of mAb, nM.'
[5] = target: T2, cynomolgus PD-1-his protein …; experiment: indirect ELISA on coated cynomolgus PD-1-his; unit from the axis 'Con of mAb, nM.'
Procedure: (§2) Briefly, 96-well micro plates were coated with 100 μl 2 μg/ml mouse PD-1-his (Cat#:50124-M08H, Sino Biological Inc) or 2 μg,/ml cynomolgus PD-1-his (Cat#:PD1-05223, Acro biosystems Inc.) in carbonate/bicarbonate buffer (pH 9.6) for 2 hours at 37° C. Plates were washed once with wash buffer (PBST, PBS+0.05% Tween-20) and then blocked with 200 μl blocking buffer (5% w/v non-fatty milk in PBST) for 2 hours at 37° C. […] ELISA plates were washed 4 times and incubated with Peroxidase AffiniPure goat anti-mouse IgG, Fcγ Fragment Specific (1:5000 dilution in PBST buffer, Cat#:115-035-071, Jackson ImmunoResearch Laboratories, Inc., 100 μl/well) or Peroxidase AffiniPure F(ab′)₂ Fragment Goat Anti-Human IgG, Fcγ fragment specific (Cat#:109-036-098, Jackson ImmunoResearch, for the controls) for 40 minutes at 37° C. After a final wash, plates were incubated with 100 μl/well TMB (Cat#:TMB-S-002, innoreagents) at room temperature. The reaction was stopped 3-10 minutes later with 50 μl/well 1M H₂SO₄, and the absorbance was read on a microplate reader using dual wavelength mode with 450 nm for TMB and 630 nm as the reference wavelength. Then the OD (450-630) values were plotted against antibody concentrations. Data was analyzed using GraphPad Prism software and EC₅₀ values were reported.

[6] = target: T1, in house made human PD-1-Fc protein; experiment: competitive ELISA: soluble Pembrolizumab pre-mixed with biotin-labeled human PD-1-Fc, added to coated Pembrolizumab (self-competition); unit from the axis 'Con of mAb, nM.'; remark: listed apart in the source
[7] = target: T1, in house made human PD-1-Fc protein; experiment: capture ELISA: antibody captured on anti-human IgG coated plate, biotin-labeled human PD-1-Fc detected with streptavidin-HRP; unit from the axis 'Con of mAb, nM.'
[8] = target: T2, cynomolgus PD-1-his protein …; experiment: indirect ELISA on coated cynomolgus PD-1-his; unit from the axis 'Con of mAb, nM.'; remark: listed apart in the source
Procedure: as §2

[9] = target: T1, in house made human PD-1-Fc protein; experiment: competitive ELISA: antibody pre-mixed with biotin-labeled human PD-1-Fc, added to coated human PD-L1-Fc (blocked ligand); unit from the axis 'Con of mAb, nM.'
Procedure: (§3) The activities of the anti-PD1 antibodies of the disclosure to block PD-L1-PD1 binding were measured in a competitive ELISA.
(§4) Briefly, 100 μl human PD-L1-Fc protein (prepared in-house with SEQ ID NO: 28) at 2 μg/mL in carbonate/bicarbonate buffer (pH 9.6) was coated on 96-well micro plates overnight at 4° C., Plates were washed with wash buffer (PBS+0.05% w/v Tween-20, PBST), and blocked with 5% w/v non-fatty milk in PBST for 2 hours at 37° C. […] After incubation at 37° C. for 40 minutes, plates were washed using wash buffer. […] Plates were washed again using wash buffer. Finally, TMB was added and the reaction was stopped using 1M H₂SO₄. The absorbance was read on a microplate reader using dual wavelength mode with 450 nm for TMB and 630 nm as the reference wavelength, then the OD (450-630) values were plotted against antibody concentrations. Data was analyzed using Graphpad Prism software and IC₅₀ values were reported.

[10] = target: T1, in house made human PD-1-Fc protein; experiment: cell-based blocking FACS: antibody pre-mixed with biotin-labeled human PD-1-Fc, added to GS-C2/PD-L1 cells expressing human PD-L1 (blocked ligand); unit from the axis 'Con of mAb, nM.'
Procedure: as §1

[11] = target: T1, in house made human PD-1-Fc protein; experiment: capture ELISA: antibody captured on anti-human IgG coated plate, biotin-labeled human PD-1-Fc detected with streptavidin-HRP; unit from the axis 'Con of mAb, nM.'; remark: listed apart in the source
[12] = target: T1, in house made human PD-1-Fc protein; experiment: competitive ELISA: antibody pre-mixed with biotin-labeled human PD-1-Fc, added to coated human PD-L1-Fc (blocked ligand); unit from the axis 'Con of mAb, nM.'; remark: listed apart in the source
Procedure: as §3, §4

[13] = target: T3, human PD-1-his protein (Cat#:PD1-H5221, Acro biosystems Inc.) (human, UniProt Q15116 25-167); experiment: BLI (Octet RED96), cell supernatant antibody captured on AHC sensor, human PD-1-his in solution
T3 construct: not shown: his tag
Procedure: Briefly, AHC biosensors (anti-human IgG Fe capture, from ForteBio) were presoaked with 10 mM glycine (pH 1.5) for 3 seconds, and then dipped in a well with running buffer (0.5% w/v BSA in PBST) for 3 seconds, the soaking and dipping steps were repeated for three times. […] A new baseline was run for 100 seconds in another well with running buffer. Then the sensors were dipped in a well with serially diluted human PD-1-his protein (Cat#:PD1-H5221, Acro biosystems Inc., starting at 100 nM with a two-fold serial dilution) in running buffer for 120 seconds, and then immersed in a baseline well for […]. Finally, sensors were presoaked with 10 mM glycine (pH 1.5) for 30 seconds, and then were dipped in a well with running buffer for 30 seconds. The association and dissociation curves were fit to a 1:1 Langmuir binding model using ForteBio Data Analysis 8.1 evaluation software.

IC50 [1]	Kd [2]	EC50 [3]	IC50 [4]	EC50 [5]	IC50 [6]	EC50 [7]	EC50 [8]	IC50 [9]	IC50 [10]	EC50 [11]	IC50 [12]	Binder	binding result [13]
0.52 nM	5.64 nM	0.23 nM	–	–	–	–	–	–	–	–	–	Nivolumab (antibody, V domains shown) VH: QVQLVESGGGVVQPGRSLRLDCKASGITFSNSGMHWVRQAPGKGLEWVAVIWYDGSKRYYADSVKGRFTISRDNSKNTLFLQMNSLRAEDTAVYYCATNDDYWGQGTLVTVSS VL: EIVLTQSPATLSLSPGERATLSCRASQSVSSYLAWYQQKPGQAPRLLIYDASNRATGIPARFSGSGSGTDFTLTISSLEPEDFAVYYCQQSSNWPRTFGQGTKVEIK	–
0.49 nM	–	0.2 nM	0.0735 nM	0.093 nM	0.0759 nM	0.113 nM	0.0957 nM	0.37 nM	0.32 nM	0.118 nM	0.345 nM	Pembrolizumab (antibody, V domains shown) VH: QVQLVQSGVEVKKPGASVKVSCKASGYTFTNYYMYWVRQAPGQGLEWMGGINPSNGGTNFNEKFKNRVTLTTDSSTTTAYMELKSLQFDDTAVYYCARRDYRFDMGFDYWGQGTTVTVSS VL: EIVLTQSPATLSLSPGERATLSCRASKGVSTSGYSYLHWYQQKPGQAPRLLIYLASYLESGVPARFSGSGSGTDFTLTISSLEPEDFAVYYCQHSRDLPLTFGGGTKVEIKR	–
–	–	–	–	–	–	–	–	–	–	–	–	humanized antibody huE1A9C8A7-V3 (antibody, human IgG4 S228P, kappa, V domains shown, Human IgG4/kappa) VH: QVQLVQSGAEVVKPGASVKISCKASGYTFSDYVMHWVRQAPGQSLEWIGVISTYHIPAVYNQKFKGKATMTVDKSTSTVYLELSSLRSEDTAVYYCAREVYGDSYYFDVWGQGTTVTVSS VL: DIVMTQTPLSLPVTPGEPASISCRSSQSIVHSNGNTYLEWYLQKPGQSPQLLIYKVSNRFSGVPDRFSGSGSGTDFTLKISRVEAEDVGVYYCFQGSHVPYTFGGGTKVEIKR	no binding (tested: antigen series starting at 100 nM)
